Assay results: patent publication US20240245800A1, “HIGHLY SPECIFIC RABBIT SINGLE -DOMAIN ANTIBODIES FOR DRUG DELIVERY IN IMMUNOTHERAPY APPLICATIONS” (TECHNOPHAGE, INVESTIGAÇÃO E DESENVOLVIMENTO EM …, priority 2021, published 2024)
Entries after “also recorded” stand apart in the source; their conditions may differ.

Key:
CLBL-1 cells = test: Immunofluorescence binding/internalization of C5 in CLBL-1 cells; format: cell-based, canine; conditions: 5 μM, 90 minutes at 37° C.
Procedure: FIG. 8. Binding and internalization characterization of C5 VL sdAb. C5 binding and internalization properties against CLBL-1 cells were evaluated by cytometry and immunofluorescence. A) For flow cytometry analysis, 1×10^6 of CLBL-1 cells were incubated with Live/Dead reagents for 30 minutes. Then, 3 μM of C5 were incubated with the cells for different timepoints at 37° C. After, cells were washed, fixed, permeabilized, and incubated for 30 min with anti-HA antibody, washed twice and incubated with anti-rat Alexa Fluor-488. […] B) By contrast, no binding of C5 was detected with Jurkat cells. C) To confirm the binding of C5 to the CLBL-1 verified by flow cytometry, we evaluated its distribution on the cells by immunofluorescence assay. […] Representative microphotographs with C5 (green) and DAPI stained-nuclei (blue) are shown.
1.5×10^5 of CLBL-1 cells were plated on ibidi μ-Slide 8 Well Glass Bottom (#80827, Ibidi, Germany) and incubated for 24 h at 37° C. in a humidified atmosphere of 5% CO2. Then, 5 μM of VL was added to the cells and incubated for 90 minutes at 37° C. […] In the Airyscan acquisition mode, ×1.80 zoom images were recorded at 1024×1024 resolution. […]

CLBL-1 cell extracts = test: ELISA screening of anti-cNHL VL sdAb clones; format: binding, canine; conditions: clone supernatants, CLBL-1 extracts
Procedure: After the phage display selection, in order to express and select the best anti-cNHL VL sdAbs, phagemid DNA derived from the in vivo output selection was cloned into a PT7-PL vector and transformed into an E. coli strain BL21. Then, individual clones were auto induced, and the supernatant tested in ELISA assays against CLBL-1 and Jurkat cell extracts. To select the best lead candidates, three parameters were evaluated: binding against cNHL, expression yields, and unspecific binding. […] After selection, to characterize the selected clones, the 43 best lead candidates were analysed by sanger sequencing (FIG. 6B). To get further insights of the enriched sequences during the in vivo phage display selection, we performed next generation sequencing (NGS) of the biopanning repertoires. NGS allows massive sequence analysis of the panning population, enabling a genomic assessment of the library diversity and frequency of each clone. Two samples were sequenced: biopanning from the CLBL-1 tumour models and initial immune VL sdAb cNHL library (FIG. 7). Upon bioinformatic analysis of the NGS data, we were able to determine the diversity of each sample and identify the most represented clones. A total of 34880 sequences were obtained for the biopanning from the CLBL-1 tumours. The NHL library obtained a total of 48864 sequences. The number of singletons, consisting of the sequences with a single occurrence, varied between samples, ranging from 76.8% in the library, and 33.3% in the in vivo biopanning from the CLBL-1. Through the comparison of the sequence prevalence between the biopannings and the library, we were able to verify that the number of occurrences in each sequence was higher in the biopanning clones. […] By comparing ELISA data, sanger sequencing and NGS analysis, the six best clones (A12, C8, C5, E1, E2, and B12) were produced and purified. Due to its binding characteristics and production properties, C5 sdAb clone was chosen to be thoroughly characterized and used in the development of the proposed ADC.
To express and select anti-NHL-sdAbs, phagemid DNA encoding selected anti-cNHL sdAbs was cloned into PT7-PL (PT7-peptide leader) vector and transformed into E. coli strain BL21. Individual colonies were inoculated in 100 μl of Super Broth (SB) medium containing Overnight Express™ Autoinduction System (Novagen®) and 100 μg/ml of ampicillin and incubated overnight at 30° C. Next day, 40 μl of BugBuster (Roche) containing anti-protease cocktail-EDTA free inhibitors (Roche) were added and incubated for 30 min at 4° C. Then, plates were centrifuged at 1200 rpm and the supernatant was tested in ELISA assays. Three different conditions were assessed: binding to the sdAbs to the antigen, expression level and unspecific binding. After coating the wells with CLBL-1 cell extracts or Raji cell extracts for 1 h at 37° C., wells were blocked with 3% BSA in PBS. Then, wells were washed with PBS and clones were added and incubated for 1 h, at 37° C. Next, plates were washed and incubated with anti-HA HRP antibody (Roche). Finally, after 1 h incubation, plates were washed and ABTS (Roche) was added and optical density at 405 nm was measured at different time points. To evaluate the expression level, the same protocol was applied, excluding antigen coating.
For unspecific binding, antigen was replaced by 3% BSA. Rabbit sera and anti-CD20 antibody were used as positive controls. BL21 cell extracts were used as negative controls. In the end, the ten best individual clones were sequenced at Eurofins company. Sequence analysis was performed using the Vector Nti software (Invitrogen). The antibody frameworks, CDRs and the amino acid numbering and sequences followed the rules described by Kabat et al. (1991) Sequences of proteins of immunological interest. Bethesda, MD, U.S. Dept. of Health and Human Services, Public Health Service, National Institutes of Health. […]

CLBL-1 xenograft tumours = conditions: mouse, in vivo
Procedure: C5 was radiolabelled with ^99mTc(CO)3(H2O)3 and intravenously injected in the tail vein of a xenograft mice model of cNHL. Mice were sacrificed at 15 min and 3 h and the radioactivity of each organ was measured. The activity in each organ was calculated and expressed as a percentage of injected radioactivity dose per gram of organ or tissue (% ID/g).
Radiochemical purity (RP) was checked by Reversed-phase high-performance liquid chromatography (RP-HPLC) and instant thin-layer chromatography silica gel (ITLC-SG, Agilent Technologies, USA). […] Radioactivity distribution on the ITLC-SG strip was evaluated using a miniGita Star scanning device (Elysia-Raytest, (Germany) coupled with a Gamma BGO-V-Detector (Elysia Raytest). For purification and concentration of the ^99mTc-labeled sdAb, a 3 K Amicon (Merck Milipore) was used. ^99mTc(CO)3—C5 diluted in PBS was used for the biodistribution studies after RP determination by ITLC-SG. For that, mice were intravenously injected in the tail vein with 100 μl of ^99mTc(CO)3—C5 and sacrificed by cervical dislocation at 15 min, and 3 h after injection. Radioactivity was measured using a dose calibrator (Carpintec CRC-15W). After the removal of the tumour and tissues of interest, their radioactivity was measured using a γ-counter (Berthold, Germany). […]

B1: C5: rabbit derived anti-cNHL VL sdAb clone, SEQ. ID. 3; ^99mTc radiolabelled for biodistribution (antibody, listed as Oryctolagus cuniculus, V domains shown)
VL: ELDLTQTPSPVSASVGGTATINCQASQSVYNNYWWAWYQQRPGHPPKLLIYETSKLASGVPSRFKGSGSGTQFTLTIIDVQCDDAATYVCAGGYGTVIDNAFGGGTELEIL
modifications: 99mTc(CO)3 radiolabel
notes: ID; ^99mTc radiolabelled for biodistribution
distribution/internalization in CLBL-1 cells (immunofluorescence) (CLBL-1 cells): internalization into the cytoplasm; also recorded: high density of Alexa Fluor-488 labelled C5 labelled in the perinuclear region
distribution/internalization in CLBL-1 cells (immunofluorescence) (CLBL-1 cells; listed as VL C5): internalization into the cytoplasm
ELISA signal against NHL cells (CLBL-1 cell extracts): best results
elimination from blood and major organs (CLBL-1 xenograft tumours): fast elimination
